Assay results published in paper PMC3435407 (PLoS ONE, 2012).
Non-standard residues stand in square brackets, D forms with d. No end group written: not given here. *: point of attachment. Biotin = O=C1N[C@H]2[C@H](CS[C@H]2CCCCC(=O)*)N1; Bpa = N[C@@H](Cc1ccc(C(=O)c2ccccc2)cc1)C(=O)O

Columns and labels:
[1] = target: T1, αAG98R-crystallin (human αA-crystallin G98R mutant) (human, UniProt P02489 1-173, G98R); test: cross-linking; 200 µg biotinyl-Bpa peptide with 200 µg αAG98R, pH 7.2, 37°C, 1 hr; free peptide removed on a 10 kDa filter; photolysis at 365 nm, 30 min, 4°C; desalted on C18; MALDI-TOF/TOF mass spectrometry; details: both partners purified
[2] = target: T1, αAG98R-crystallin (human αA-crystallin …); test: cross-linking; 200 µg biotinyl-Bpa peptide with 200 µg αAG98R, pH 7.2, 37°C, 1 hr; free peptide removed on a 10 kDa filter; photolysis at 365 nm, 30 min, 4°C; SDS-PAGE and western blot for biotin (avidin-horseradish peroxidase); details: both partners purified

T1 sequence (P02489 whole entry G98R): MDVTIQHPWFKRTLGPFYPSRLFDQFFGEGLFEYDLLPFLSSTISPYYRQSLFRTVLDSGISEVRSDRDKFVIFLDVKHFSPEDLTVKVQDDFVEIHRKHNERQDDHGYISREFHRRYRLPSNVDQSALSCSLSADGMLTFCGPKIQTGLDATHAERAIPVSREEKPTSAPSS

stoichiometry N [1]: 1 peptide per αAG98R monomer | stoichiometry N [2]: 1 peptide per αAG98R subunit
B1: Biotin-DFVIFLDVKH(Bpa)SPEDLTVK (biotinyl αA-mini-chaperone-Bpa peptide) (peptide)
peptide: Biotin-DFVIFLDVKH[Bpa]SPEDLTVK
